Source: PMC2734569, “Functional mapping of the fission yeast DNA polymerase δ B-subunit Cdc1 by site-directed and random pentapeptide insertion mutagenesis” (BMC Molecular Biology, 2009)

Columns and labels:
Experiment in all cases: two-hybrid; LexA-Cdc1 bait (pBTM116 or pBTM116BN) with Gal4 activation domain-Cdc27 prey (pGAD2F-Cdc27) in S. cerevisiae CTY10-5d; ONPG liquid culture beta-galactosidase assay, mean of triplicates, as percent of wild-type Cdc1
Conditions in all cases: partners not purified
Cdc1-J9 = biological target: T1, Cdc1-J9 (Schizosaccharomyces pombe, UniProt P87324 1-462, Met-ArgGlyThrProMet-Thr)
T1 construct: Cdc1, S. pombe, with a pentapeptide inserted after residue 174; source: yeast two-hybrid fusion, in S. cerevisiae CTY10-5d
T1 sequence (looked up): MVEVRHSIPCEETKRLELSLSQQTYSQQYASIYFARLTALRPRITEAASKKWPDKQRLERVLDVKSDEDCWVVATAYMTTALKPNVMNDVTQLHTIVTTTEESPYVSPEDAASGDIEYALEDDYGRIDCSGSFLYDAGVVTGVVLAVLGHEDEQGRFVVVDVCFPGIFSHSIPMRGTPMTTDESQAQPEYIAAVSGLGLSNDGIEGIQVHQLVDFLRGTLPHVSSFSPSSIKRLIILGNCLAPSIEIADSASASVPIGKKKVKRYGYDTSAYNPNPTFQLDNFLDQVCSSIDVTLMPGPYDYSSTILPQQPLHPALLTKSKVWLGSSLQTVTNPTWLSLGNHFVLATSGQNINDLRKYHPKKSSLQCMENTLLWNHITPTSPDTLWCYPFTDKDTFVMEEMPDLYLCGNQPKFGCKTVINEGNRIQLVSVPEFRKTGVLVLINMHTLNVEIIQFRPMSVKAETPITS

Cdc1-A2 = biological target: T2, Cdc1-A2 (Schizosaccharomyces pombe, UniProt P87324 1-462, Gly293Ala)
T2 construct: Cdc1, S. pombe, point mutant; source: yeast two-hybrid fusion, in S. cerevisiae CTY10-5d
T2 sequence (looked up): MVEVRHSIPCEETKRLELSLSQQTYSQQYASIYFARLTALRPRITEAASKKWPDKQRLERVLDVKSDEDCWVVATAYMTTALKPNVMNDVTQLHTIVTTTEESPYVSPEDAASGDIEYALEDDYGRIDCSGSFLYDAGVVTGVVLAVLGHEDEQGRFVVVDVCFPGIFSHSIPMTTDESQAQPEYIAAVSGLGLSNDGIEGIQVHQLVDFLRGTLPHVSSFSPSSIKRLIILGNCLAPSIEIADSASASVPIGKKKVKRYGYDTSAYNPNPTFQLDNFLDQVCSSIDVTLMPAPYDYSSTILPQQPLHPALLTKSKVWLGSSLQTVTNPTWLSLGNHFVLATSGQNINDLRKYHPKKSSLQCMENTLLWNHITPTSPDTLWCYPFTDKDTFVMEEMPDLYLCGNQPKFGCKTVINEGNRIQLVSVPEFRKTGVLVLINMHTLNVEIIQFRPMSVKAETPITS

Cdc1-A3 = biological target: T3, Cdc1-A3 (Schizosaccharomyces pombe, UniProt P87324 1-462, Asp296Ala)
T3 construct: Cdc1, S. pombe, point mutant; source: yeast two-hybrid fusion, in S. cerevisiae CTY10-5d
T3 sequence (looked up): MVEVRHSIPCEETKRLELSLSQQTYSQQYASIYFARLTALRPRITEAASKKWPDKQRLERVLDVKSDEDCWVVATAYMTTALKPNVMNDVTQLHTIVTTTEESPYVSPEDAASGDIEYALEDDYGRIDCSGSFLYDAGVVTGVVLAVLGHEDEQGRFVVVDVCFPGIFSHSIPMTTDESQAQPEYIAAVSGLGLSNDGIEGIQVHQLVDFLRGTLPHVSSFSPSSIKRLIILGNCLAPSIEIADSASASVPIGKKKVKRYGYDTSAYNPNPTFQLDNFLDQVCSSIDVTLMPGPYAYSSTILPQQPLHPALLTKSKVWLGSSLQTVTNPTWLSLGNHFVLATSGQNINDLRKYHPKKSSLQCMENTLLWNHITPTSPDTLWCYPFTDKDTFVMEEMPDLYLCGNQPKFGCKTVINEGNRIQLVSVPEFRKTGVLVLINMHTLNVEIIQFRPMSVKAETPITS

Cdc1-A6 = biological target: T4, Cdc1-A6 (Schizosaccharomyces pombe, UniProt P87324 1-462, Pro329Ala)
T4 construct: Cdc1, S. pombe, point mutant; source: yeast two-hybrid fusion, in S. cerevisiae CTY10-5d
T4 sequence (looked up): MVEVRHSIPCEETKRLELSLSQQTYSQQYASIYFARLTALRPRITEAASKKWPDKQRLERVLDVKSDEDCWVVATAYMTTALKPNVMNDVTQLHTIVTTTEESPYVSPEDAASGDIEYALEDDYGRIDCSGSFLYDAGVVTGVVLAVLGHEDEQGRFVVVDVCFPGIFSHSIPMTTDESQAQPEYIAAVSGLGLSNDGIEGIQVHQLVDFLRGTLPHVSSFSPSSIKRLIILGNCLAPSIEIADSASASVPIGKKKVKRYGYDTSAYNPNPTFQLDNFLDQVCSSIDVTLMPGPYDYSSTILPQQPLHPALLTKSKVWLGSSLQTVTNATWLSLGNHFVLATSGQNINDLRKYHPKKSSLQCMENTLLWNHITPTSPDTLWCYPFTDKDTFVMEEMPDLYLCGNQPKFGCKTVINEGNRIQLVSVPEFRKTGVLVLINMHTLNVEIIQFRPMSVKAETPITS

two-hybrid beta-galactosidase activity, % of wild-type Cdc1 (Cdc1-J9): 102%
two-hybrid beta-galactosidase activity, % of wild-type Cdc1 (Cdc1-A2): 19%
two-hybrid beta-galactosidase activity, % of wild-type Cdc1 (Cdc1-A3): 23%
two-hybrid beta-galactosidase activity, % of wild-type Cdc1 (Cdc1-A6): 6%
B1: Cdc27 (fission yeast DNA polymerase delta C-subunit) (natural protein, Schizosaccharomyces pombe, UniProt P30261 1-372, looked up)
chain: MEEWRNFLDIKVINESSLVTVDNLSLQLDISSEKAQEYLNMFYQGNDFLYPIYLIHGQPIDDEINLEIDEESQPISNFPVLQYILCDKSSLQEKQSRLKSGYKTVIFALSSAPLSDFDELLPAVYEIREKDVLYKKEDADKYGFIFNENSVPRVLKKAPSTHSPQLSVPSKTSTIDKTDTRSTEKTKGKDIFSNARNQKGNSSRKNKKAPLENHKEKEPLLPKEEKLSEQAKRERDDLKNIMQLEDESVSTTSVHDSEDDNLDSNNFQLEIGTEAKSAAPDEPQEIIKSVSGGKRRGKRKVKKYATTKDEEGFLVTKEEEVWESFSEDENISTGTSNVVRNKPTTVNIATKKKNTAQSKPQQKSIMSFFGKK
notes: DNA polymerase delta C-subunit Cdc27, S. pombe; prey plasmid pGAD2F-Cdc27; also called pGAD2F-Cdc27; source: yeast two-hybrid fusion, in S. cerevisiae CTY10-5d
